Results on 6 molecules are retold here after paper PMC10907699, “The IRE1β-mediated unfolded protein response is repressed by the chaperone AGR2 in mucin producing cells” (The EMBO Journal, 2023).

B1: MBP-hIRE1b_LD_(35-428)-AviTag-His7 (domain or fragment, human, UniProt Q76MJ5 35-428, looked up)
chain: LRPENLLLVSTLDGSLHALSKQTGDLKWTLRDDPVIEGPMYVTEMAFLSDPADGSLYILGTQKQQGLMKLPFTIPELVHASPCRSSDGVFYTGRKQDAWFVVDPESGETQMTLTTEGPSTPRLYIGRTQYTVTMHDPRAPALRWNTTYRRYSAPPMDGSPGKYMSHLASCGMGLLLTVDPGSGTVLWTQDLGVPVMGVYTWHQDGLRQLPHLTLARDTLHFLALRWGHIRLPASGPRDTATLFSTLDTQLLMTLYVGKDETGFYVSKALVHTGVALVPRGLTLAPADGPTTDEVTLQVSGEREGSPSTAVRYPSGSVALPSQWLLIGHHELPPVLHTTMLRVHPTLGSGTAETRPPENTQAPAFFLELLSLSREKLWDSELHPEEKTPDSYLGL
modifications: biotin on the AviTag (endogenous biotinylation of a fraction of the protein in E. coli)
notes: IRE1β (ERN2) luminal domain, human, residues 35-428; No step that cleaves MBP is described; also called IRE1β LD; IRE1β LD probe; source: T7 Express lysY/Iq E. coli, purified (Ni-NTA, amylose resin, two gel filtrations); not shown: AviTag, C-terminal, kept

One data set concerns the target AGR2 (Homo sapiens) (UniProt O95994). The conditions noted are these: cited from earlier work.
For data set [1], the target named is MBP-hIRE1β LD ∆C-mGL-AviTag-His (human) (UniProt Q76MJ5). Briefly: mass photometry (ISCAT); IRE1β LD wt or ∆C alone at the indicated concentrations; HK buffer, room temperature (~21 °C).
Another data set addresses T1, mouse AGR2 (21-175) C81S (mouse, UniProt O88312 21-175, C81S).
T1 sequence: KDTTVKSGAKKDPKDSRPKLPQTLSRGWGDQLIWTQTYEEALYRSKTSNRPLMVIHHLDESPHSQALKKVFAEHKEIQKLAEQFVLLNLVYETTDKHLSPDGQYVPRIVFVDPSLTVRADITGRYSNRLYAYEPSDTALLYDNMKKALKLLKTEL
Briefly: BLI; K1/2 max from steady-state one-site fit. Background: Biolayer interferometry detects binding as a change in optical thickness at a sensor tip.

In a further data set the target is T2, mouse AGR2 (21-175) C81E (mouse, UniProt O88312 21-175, C81E).
T2 sequence: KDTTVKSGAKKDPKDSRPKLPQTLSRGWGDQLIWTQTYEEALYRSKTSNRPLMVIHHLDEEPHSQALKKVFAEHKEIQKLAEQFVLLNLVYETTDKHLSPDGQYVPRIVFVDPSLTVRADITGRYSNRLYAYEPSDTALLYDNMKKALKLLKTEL
In words: BLI; K1/2 max from steady-state one-site fit.

For data set [2], the target named is T3, MBP-hIRE1bLD (35-428)-NanoLuc-H6 (human, UniProt Q76MJ5 35-428).
T3 construct: IRE1β (ERN2) luminal domain, human, residues 35-428; No step that cleaves MBP is described; also called IRE1β-nluc donor; IRE1β LD-nanoluc; source: T7 Express lysY/Iq E. coli, purified (Ni-NTA, amylose resin, two gel filtrations); not shown: NanoLuc (complete, WT), C-terminal, kept
T3 sequence (looked up): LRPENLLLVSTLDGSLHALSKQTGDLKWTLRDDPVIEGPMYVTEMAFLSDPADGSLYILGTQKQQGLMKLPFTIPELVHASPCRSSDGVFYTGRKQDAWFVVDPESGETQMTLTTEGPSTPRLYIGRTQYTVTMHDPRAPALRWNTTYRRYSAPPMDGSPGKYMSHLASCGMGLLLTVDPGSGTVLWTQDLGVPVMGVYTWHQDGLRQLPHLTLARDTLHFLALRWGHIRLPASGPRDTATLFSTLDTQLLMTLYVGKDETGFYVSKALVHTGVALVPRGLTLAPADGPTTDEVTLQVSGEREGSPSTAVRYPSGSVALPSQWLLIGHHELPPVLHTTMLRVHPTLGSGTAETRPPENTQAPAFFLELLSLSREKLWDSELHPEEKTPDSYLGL
In words: FRET or BRET; kinetic readings: AGR2 variants or unlabelled IRE1β LD competitor added to the pre-formed IRE1β LD-nanoluc / IRE1β LD-mGL BRET pair; BRET ratio every 20 s, one-phase exponential decay. To be noted: both partners purified. (In general: Bioluminescence resonance energy transfer reports proximity on the nanometre scale.)

Data set [3] deals with the molecule itself. Briefly: mass photometry (ISCAT); IRE1β LD wt or ∆C alone at the indicated concentrations; HK buffer, room temperature (~21 °C).
In data set [4] the target is B1. In words: BLI; biotinylated IRE1 LD loaded on streptavidin sensors, exposed sequentially to increasing concentrations of AGR2; 30 °C; HK buffer (50 mM HEPES-KOH pH 7.4, 150 mM KCl) with 0.05% Triton X-100 and 1 mM TCEP; signal against AGR2 concentration fitted to a one-site specific binding function (the methods call the result a KD of binding). To be noted: both partners purified.

As to AGR2 (from UniProt O95994), the Kd – broadly, the constant that tells how readily two partners part at equilibrium – in the data set with AGR2 (Homo sapiens) was 8 µM.

In the case of “MBP-hIRE1β LD ∆C-mGL-AviTag-His (from UniProt Q76MJ5 35-428) (domain or fragment)”, the stoichiometry N – broadly, the number of molecules, sites or subunits per partner or assembly – in data set [1] is 2.

Take B1: the values for the dissociation constant Kd with mouse AGR2 (21-175) C81S and with mouse AGR2 (21-175) C81E were 124 µM and 78.5 µM, respectively. Also, in data set [2], the binding result is recorded as “binds”.

B2: MBP-hIRE1β LD-mGL-AviTag-His (domain or fragment, human, UniProt Q76MJ5 35-428, looked up)
chain: LRPENLLLVSTLDGSLHALSKQTGDLKWTLRDDPVIEGPMYVTEMAFLSDPADGSLYILGTQKQQGLMKLPFTIPELVHASPCRSSDGVFYTGRKQDAWFVVDPESGETQMTLTTEGPSTPRLYIGRTQYTVTMHDPRAPALRWNTTYRRYSAPPMDGSPGKYMSHLASCGMGLLLTVDPGSGTVLWTQDLGVPVMGVYTWHQDGLRQLPHLTLARDTLHFLALRWGHIRLPASGPRDTATLFSTLDTQLLMTLYVGKDETGFYVSKALVHTGVALVPRGLTLAPADGPTTDEVTLQVSGEREGSPSTAVRYPSGSVALPSQWLLIGHHELPPVLHTTMLRVHPTLGSGTAETRPPENTQAPAFFLELLSLSREKLWDSELHPEEKTPDSYLGL
notes: IRE1β (ERN2) luminal domain, human; C-terminal mGL inserted in the MBP-hIRE1bLD of UK2796 (residues 35-428); also called GFP-tagged IRE1β LD; IRE1β LD-mGL acceptor; source: T7 Express lysY/Iq E. coli, purified (Ni-NTA, amylose resin, two gel filtrations); not shown: MBP, N-terminal, kept; mGL (monomeric Green Lantern), C-terminal, kept
With B2, the “stoichiometry N” value in data set [3] was determined as 2.

B3: mouse AGR2 (21-175) C81E (natural protein, UniProt O88312 21-175, looked up)
chain: KDTTVKSGAKKDPKDSRPKLPQTLSRGWGDQLIWTQTYEEALYRSKTSNRPLMVIHHLDEEPHSQALKKVFAEHKEIQKLAEQFVLLNLVYETTDKHLSPDGQYVPRIVFVDPSLTVRADITGRYSNRLYAYEPSDTALLYDNMKKALKLLKTEL
notes: AGR2, mouse, residues 21-175, active site mutant C81E; also called AGR2 C81E; UK2835; source: T7 Express lysY/Iq E. coli, purified (Ni-NTA, SENP2 cleavage, reverse Ni-NTA); not shown: His6, N-terminal, cleaved; SUMO3, N-terminal, cleaved
In the case of B3, the binding result in data set [4] is “binds”.

B4: mouse AGR2 (21-175) C81S (natural protein, UniProt O88312 21-175, looked up)
chain: KDTTVKSGAKKDPKDSRPKLPQTLSRGWGDQLIWTQTYEEALYRSKTSNRPLMVIHHLDESPHSQALKKVFAEHKEIQKLAEQFVLLNLVYETTDKHLSPDGQYVPRIVFVDPSLTVRADITGRYSNRLYAYEPSDTALLYDNMKKALKLLKTEL
notes: AGR2, mouse, residues 21-175, active site mutant C81S; also called AGR2 C81S; UK2795; source: T7 Express lysY/Iq E. coli, purified (Ni-NTA, SENP2 cleavage, reverse Ni-NTA); not shown: His6, N-terminal, cleaved; SUMO3, N-terminal, cleaved
For the molecule B4, the binding result in data set [4] is listed as “binds”.
